In patent publication US20260242735A1:

How the values were obtained:
Test in all cases: flow cytometry, HEK293-T, alanine scan
human CD33 A272S (human) = human CD33 A272S (human) (UniProt P20138)
human CD33 A290S (human) = human CD33 A290S (human) (UniProt P20138)
human CD33 A293S (human) = human CD33 A293S (human) (UniProt P20138)
human CD33 A306S (human) = human CD33 A306S (human) (UniProt P20138)
human CD33 A328S (human) = human CD33 A328S (human) (UniProt P20138)
human CD33 A329S (human) = human CD33 A329S (human) (UniProt P20138)
human CD33 A341S (human) = human CD33 A341S (human) (UniProt P20138)
Sequence of human CD33 A341S (human) (P20138 18-364 A341S limits assumed): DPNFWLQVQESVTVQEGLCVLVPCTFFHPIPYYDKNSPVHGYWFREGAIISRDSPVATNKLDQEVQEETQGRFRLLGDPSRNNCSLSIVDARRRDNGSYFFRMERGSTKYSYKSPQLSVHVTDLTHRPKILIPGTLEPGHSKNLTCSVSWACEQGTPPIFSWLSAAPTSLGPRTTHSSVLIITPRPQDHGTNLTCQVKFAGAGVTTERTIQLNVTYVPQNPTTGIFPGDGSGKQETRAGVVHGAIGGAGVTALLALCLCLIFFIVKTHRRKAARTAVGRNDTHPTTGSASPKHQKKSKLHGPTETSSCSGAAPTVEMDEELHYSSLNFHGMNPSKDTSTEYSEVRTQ

human CD33 C274A (human) = human CD33 C274A (human) (UniProt P20138)
human CD33 C276A (human) = human CD33 C276A (human) (UniProt P20138)
human CD33 E321A (human) = human CD33 E321A (human) (UniProt P20138)
human CD33 E336A (human) = human CD33 E336A (human) (UniProt P20138)
human CD33 F279A (human) = human CD33 F279A (human) (UniProt P20138)
human CD33 F280A (human) = human CD33 F280A (human) (UniProt P20138)
human CD33 G295A (human) = human CD33 G295A (human) (UniProt P20138)
human CD33 H285A (human) = human CD33 H285A (human) (UniProt P20138)
human CD33 H300A (human) = human CD33 H300A (human) (UniProt P20138)
human CD33 H317A (human) = human CD33 H317A (human) (UniProt P20138)
Sequence of human CD33 H317A (human) (P20138 18-364 H317A limits assumed): as the sequence (P20138 18-364 A341S limits assumed) above, with H300A, S324A counted along it

human CD33 H339A (human) = human CD33 H339A (human) (UniProt P20138)
human CD33 I278A (human) = human CD33 I278A (human) (UniProt P20138)
human CD33 I281A (human) = human CD33 I281A (human) (UniProt P20138)
human CD33 K283A (human) = human CD33 K283A (human) (UniProt P20138)
Sequence of human CD33 K283A (human) (P20138 18-364 K283A limits assumed): as the sequence (P20138 18-364 A341S limits assumed) above, with K266A, S324A counted along it

human CD33 K288A (human) = human CD33 K288A (human) (UniProt P20138)
Sequence of human CD33 K288A (human) (P20138 18-364 K288A limits assumed): as the sequence (P20138 18-364 A341S limits assumed) above, with K271A, S324A counted along it

human CD33 K309A (human) = human CD33 K309A (human) (UniProt P20138)
human CD33 K312A (human) = human CD33 K312A (human) (UniProt P20138)
Sequence of human CD33 K312A (human) (P20138 18-364 K312A limits assumed): as the sequence (P20138 18-364 A341S limits assumed) above, with K295A, S324A counted along it

human CD33 K315A (human) = human CD33 K315A (human) (UniProt P20138)
human CD33 L277A (human) = human CD33 L277A (human) (UniProt P20138)
Sequence of human CD33 L277A (human) (P20138 18-364 L277A limits assumed): as the sequence (P20138 18-364 A341S limits assumed) above, with L260A, S324A counted along it

human CD33 L316A (human) = human CD33 L316A (human) (UniProt P20138)
Sequence of human CD33 L316A (human) (P20138 18-364 L316A limits assumed): as the sequence (P20138 18-364 A341S limits assumed) above, with L299A, S324A counted along it

human CD33 L338A (human) = human CD33 L338A (human) (UniProt P20138)
human CD33 L343A (human) = human CD33 L343A (human) (UniProt P20138)
Sequence of human CD33 L343A (human) (P20138 18-364 L343A limits assumed): as the sequence (P20138 18-364 A341S limits assumed) above, with S324A, L326A counted along it

human CD33 M334A (human) = human CD33 M334A (human) (UniProt P20138)
human CD33 P319A (human) = human CD33 P319A (human) (UniProt P20138)
human CD33 P330A (human) = human CD33 P330A (human) (UniProt P20138)
human CD33 R287A (human) = human CD33 R287A (human) (UniProt P20138)
human CD33 R291A (human) = human CD33 R291A (human) (UniProt P20138)
Sequence of human CD33 R291A (human) (P20138 18-364 R291A limits assumed): as the sequence (P20138 18-364 A341S limits assumed) above, with R274A, S324A counted along it

human CD33 S305A (human) = human CD33 S305A (human) (UniProt P20138)
human CD33 S307A (human) = human CD33 S307A (human) (UniProt P20138)
human CD33 S324A (human) = human CD33 S324A (human) (UniProt P20138)
human CD33 S326A (human) = human CD33 S326A (human) (UniProt P20138)
human CD33 S342A (human) = human CD33 S342A (human) (UniProt P20138)
human CD33 T284A (human) = human CD33 T284A (human) (UniProt P20138)
Sequence of human CD33 T284A (human) (P20138 18-364 T284A limits assumed): as the sequence (P20138 18-364 A341S limits assumed) above, with T267A, S324A counted along it

human CD33 T292A (human) = human CD33 T292A (human) (UniProt P20138)
human CD33 T299A (human) = human CD33 T299A (human) (UniProt P20138)
Sequence of human CD33 T299A (human) (P20138 18-364 T299A limits assumed): as the sequence (P20138 18-364 A341S limits assumed) above, with T282A, S324A counted along it

human CD33 T302A (human) = human CD33 T302A (human) (UniProt P20138)
Sequence of human CD33 T302A (human) (P20138 18-364 T302A limits assumed): as the sequence (P20138 18-364 A341S limits assumed) above, with T285A, S324A counted along it

human CD33 T303A (human) = human CD33 T303A (human) (UniProt P20138)
Sequence of human CD33 T303A (human) (P20138 18-364 T303A limits assumed): as the sequence (P20138 18-364 A341S limits assumed) above, with T286A, S324A counted along it

human CD33 V282A (human) = human CD33 V282A (human) (UniProt P20138)
human CD33 V294A (human) = human CD33 V294A (human) (UniProt P20138)

Sequence of human CD33 A293S (human) (P20138 18-364 A293S limits assumed): as the sequence (P20138 18-364 A341S limits assumed) above, with A276S, S324A counted along it

Refmab #7 (WM53) (antibody)
Mean % WT Binding (human CD33 A272S (human)): 113 % WT binding
Mean % WT Binding (human CD33 A290S (human)): 98 % WT binding
Mean % WT Binding (human CD33 A293S (human)): 120 % WT binding
Mean % WT Binding (human CD33 A306S (human)): 100 % WT binding
Mean % WT Binding (human CD33 A328S (human)): 119 % WT binding
Mean % WT Binding (human CD33 A329S (human)): 120 % WT binding
Mean % WT Binding (human CD33 A341S (human)): 95 % WT binding
Mean % WT Binding (human CD33 C274A (human)): 102 % WT binding
Mean % WT Binding (human CD33 C276A (human)): 110 % WT binding
Mean % WT Binding (human CD33 E321A (human)): 109 % WT binding
Mean % WT Binding (human CD33 E336A (human)): 98.4 % WT binding
Mean % WT Binding (human CD33 F279A (human)): 124 % WT binding
Mean % WT Binding (human CD33 F280A (human)): 104 % WT binding
Mean % WT Binding (human CD33 G295A (human)): 115 % WT binding
Mean % WT Binding (human CD33 H285A (human)): 109 % WT binding
Mean % WT Binding (human CD33 H300A (human)): 106 % WT binding
Mean % WT Binding (human CD33 H317A (human)): 112 % WT binding
Mean % WT Binding (human CD33 H339A (human)): 133 % WT binding
Mean % WT Binding (human CD33 I278A (human)): 93.2 % WT binding
Mean % WT Binding (human CD33 I281A (human)): 110 % WT binding
Mean % WT Binding (human CD33 K283A (human)): 117 % WT binding
Mean % WT Binding (human CD33 K288A (human)): 128 % WT binding
Mean % WT Binding (human CD33 K309A (human)): 93.6 % WT binding
Mean % WT Binding (human CD33 K312A (human)): 101 % WT binding
Mean % WT Binding (human CD33 K315A (human)): 112 % WT binding
Mean % WT Binding (human CD33 L277A (human)): 92 % WT binding
Mean % WT Binding (human CD33 L316A (human)): 103 % WT binding
Mean % WT Binding (human CD33 L338A (human)): 124 % WT binding
Mean % WT Binding (human CD33 L343A (human)): 96.2 % WT binding
Mean % WT Binding (human CD33 M334A (human)): 93.9 % WT binding
Mean % WT Binding (human CD33 P319A (human)): 114 % WT binding
Mean % WT Binding (human CD33 P330A (human)): 102 % WT binding
Mean % WT Binding (human CD33 R287A (human)): 91.1 % WT binding
Mean % WT Binding (human CD33 R291A (human)): 120 % WT binding
Mean % WT Binding (human CD33 S305A (human)): 106 % WT binding
Mean % WT Binding (human CD33 S307A (human)): 91.7 % WT binding
Mean % WT Binding (human CD33 S324A (human)): 99.2 % WT binding
Mean % WT Binding (human CD33 S326A (human)): 103 % WT binding
Mean % WT Binding (human CD33 S342A (human)): 95.2 % WT binding
Mean % WT Binding (human CD33 T284A (human)): 120 % WT binding
Mean % WT Binding (human CD33 T292A (human)): 119 % WT binding
Mean % WT Binding (human CD33 T299A (human)): 109 % WT binding
Mean % WT Binding (human CD33 T302A (human)): 113 % WT binding
Mean % WT Binding (human CD33 T303A (human)): 77.1 % WT binding
Mean % WT Binding (human CD33 V282A (human)): 106 % WT binding
Mean % WT Binding (human CD33 V294A (human)): 126 % WT binding
